In PMC12903857 (Journal of the American Chemical Society, 2026):
Non-standard residues stand in square brackets, D forms with d. No end group written: not given here. pS = N[C@@H](COP(=O)(O)O)C(=O)O

Assays:
A-RAF (NanoBRET fusion) = molecular target: T1, A-RAF (NanoBRET fusion) (UniProt P10398 1-606); test: FRET or BRET; NanoBRET in HEK293T cells: RAF tagged with NanoLuciferase, 14-3-3σ with HaloTag/fluorescent HaloTag ligand; dose responses of compounds against DMSO; settings: partners not purified
T1 construct: A-RAF, full-length RAF client of the cell assays; Used in the 14-3-3σ/A-RAF and the A-RAF/C-RAF NanoBRET assays; the fusion partner may differ between them; The cell line is told for the first NanoBRET assays only; source: HEK293T, transfected, in cells; not shown: NanoLuciferase or HaloTag (from the NanoBRET method)

[1] = molecular target: T2, C-RAF-NanoLuciferase (Nluc) (UniProt P04049 1-648); test: as above; settings: partners not purified
T2 construct: C-RAF, full-length RAF client of the cell assays; source: HEK293T, transfected, in cells

B-RAF (NanoBRET fusion) = molecular target: T3, B-RAF (NanoBRET fusion) (UniProt P15056 1-766); test: as above; settings: partners not purified
T3 construct: B-RAF, full-length RAF client of the cell assays; Used in the 14-3-3σ/B-RAF and the B-RAF/C-RAF NanoBRET assays; the fusion partner may differ between them; The cell line is told for the first NanoBRET assays only; source: HEK293T, transfected, in cells; not shown: NanoLuciferase or HaloTag (from the NanoBRET method)
T3 sequence (P15056 whole entry, the tested form may be a part): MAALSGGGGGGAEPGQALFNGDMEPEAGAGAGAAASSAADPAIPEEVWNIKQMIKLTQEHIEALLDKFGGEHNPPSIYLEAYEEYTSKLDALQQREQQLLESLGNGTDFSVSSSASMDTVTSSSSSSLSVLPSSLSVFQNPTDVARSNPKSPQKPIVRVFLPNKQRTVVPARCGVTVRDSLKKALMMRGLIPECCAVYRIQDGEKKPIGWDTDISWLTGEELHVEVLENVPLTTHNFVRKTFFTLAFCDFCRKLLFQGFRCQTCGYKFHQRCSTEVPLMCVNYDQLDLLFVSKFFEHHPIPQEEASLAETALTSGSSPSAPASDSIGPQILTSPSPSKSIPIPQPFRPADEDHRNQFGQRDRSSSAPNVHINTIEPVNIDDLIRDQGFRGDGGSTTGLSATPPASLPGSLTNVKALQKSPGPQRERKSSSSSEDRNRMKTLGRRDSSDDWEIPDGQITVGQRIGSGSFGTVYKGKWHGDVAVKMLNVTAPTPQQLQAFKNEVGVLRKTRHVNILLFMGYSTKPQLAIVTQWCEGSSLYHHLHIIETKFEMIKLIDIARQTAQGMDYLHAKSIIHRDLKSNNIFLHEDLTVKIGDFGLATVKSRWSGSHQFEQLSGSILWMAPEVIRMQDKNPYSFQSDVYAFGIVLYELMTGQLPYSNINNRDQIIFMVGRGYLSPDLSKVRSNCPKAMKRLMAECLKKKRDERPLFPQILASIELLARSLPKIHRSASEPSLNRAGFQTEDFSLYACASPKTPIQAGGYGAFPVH

14-3-3σ = molecular target: T4, 14-3-3σ (UniProt P31947 1-248); test: fluorescence polarisation; fluorescence anisotropy protein titration: 14-3-3σ titrated into 10 nM labeled peptide in the presence of DMSO; apparent; settings: both partners purified
T4 construct: 14-3-3σ (sigma isoform of 14-3-3, SFN), the protein titrated in the fluorescence anisotropy assays; With the covalent compounds of the FA assays C38 becomes modified in the sample; also called sigma isoform
T4 sequence (looked up): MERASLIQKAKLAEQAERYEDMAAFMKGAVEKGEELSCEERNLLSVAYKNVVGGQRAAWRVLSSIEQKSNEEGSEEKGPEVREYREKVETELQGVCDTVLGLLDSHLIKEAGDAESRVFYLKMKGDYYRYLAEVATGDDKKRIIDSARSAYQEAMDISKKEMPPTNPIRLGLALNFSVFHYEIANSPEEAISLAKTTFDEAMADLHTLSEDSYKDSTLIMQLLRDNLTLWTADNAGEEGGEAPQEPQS

Row | Binder | fold increase (BRET signal) with 10 μM 22 (A-RAF (NanoBRET fusion)) | fold increase (BRET signal) with 10 μM 23 (A-RAF (NanoBRET fusion)) | fold stabilization (BRET signal) with 22 against DMSO [1] | fold stabilization (BRET signal) with 23 against DMSO [1] | fold stabilization (BRET signal) with 70 against DMSO [1] | fold stabilization (BRET signal) with 78 against DMSO [1] | fold increase (BRET signal) with 22 (B-RAF (NanoBRET fusion)) | fold increase (BRET signal) with 23 (B-RAF (NanoBRET fusion)) | Kd (14-3-3σ)
1 | 14-3-3σ-Halotag (HT) (natural protein, UniProt P31947 1-248, looked up, fluorescent HaloTag ligand on the HaloTag, 14-3-3σ, full length, for NanoBRET; also called full-length 14-3-3σ; source: HEK293T, transfected, in cells) MERASLIQKAKLAEQAERYEDMAAFMKGAVEKGEELSCEERNLLSVAYKNVVGGQRAAWRVLSSIEQKSNEEGSEEKGPEVREYREKVETELQGVCDTVLGLLDSHLIKEAGDAESRVFYLKMKGDYYRYLAEVATGDDKKRIIDSARSAYQEAMDISKKEMPPTNPIRLGLALNFSVFHYEIANSPEEAISLAKTTFDEAMADLHTLSEDSYKDSTLIMQLLRDNLTLWTADNAGEEGGEAPQEPQS | 1.6 fold | 1.7 fold | 1.5 fold | 1.6 fold | 1.3 fold | 1.4 fold | 1.4 fold | 1.4 fold | –
2 | QRST[pS]TPNVH (also: FAM label, site not given here) [FAM-labeled C-RAF259 peptide (10-mer)] | – | – | – | – | – | – | – | – | 8.43 µM
